Biological target: T1, MUC5ac mucin (PAM4 antigen) from CaPan1 human pancreatic carcinoma (human, UniProt P98088 28-5654, limits assumed, heavily glycosylated native mucin)
T1 construct: The antigen was never used as a pure recombinant protein; also called CaPan1 Ag; CaPan1 antigens
Assay: ELISA on target mucin antigen (FIG. 9)

EC50: 1.83 nM
B1: PAM4-F(ab′)2 (other)
chain 1: EVQLQESGPELVKPGASVKMSCKASGYTFPSYVLHWVKQKPGQGLEWIGYINPYNDGTQYNEKFKGKATLTSDKSSSTAYMELSRLTSEDSAVYYCARGFGGSYGFAYWGQGTLITVSA
chain 2: DIVMTQSPAIMSASPGEKVTMTCSASSSVSSSYLYWYQQKPGSSPKLWIYSTSNLASGVPARFSGSGSGTSYSLTISSMEAEDAASYFCHQWNRYPYTFGGGTKLEIK
